# Assay results reported in patent US6060451A, “Thrombin inhibitors based on the amino acid sequence of hirudin” (The National Research Council of Canada, priority 1995, dated 2000).
# B1: r-Hirudin: recombinant hirudin (HV-2), thrombin inhibitor protein of the leech Hirudo medicinalis (protein)
# chain: ITYTDCTESGQNLCLCEGSNVCGKGNKCILGSNGKGNQCVTGEGTPNPESHNNGDFEEIPEEYLQ
# Assays:
# [1] = system: arteriovenous shunt occlusion; assay: Antithrombotic activity in the arteriovenous shunt model; details: rats, 5 min after intravenous administration
# [2] = system: activated partial thromboplastin time; assay: Increase in APTT, bolus plus infusion model; format: in vivo, rat; design: Infusion Dose needed to cause 2-4 fold increase in APTT: unit not given here; details: intravenous bolus followed by infusion
# [3] = system: carotid artery thrombosis; assay: Ferric chloride injury-induced thrombosis model in carotid artery; details: rat carotid artery, FeCl3 injury; control patency time 19 ± 1 min
# Experimental: Species: Rat, male, Sprague-Dawley.
# Animals were laid on a heating pad which was maintained at 37° C. The carotid artery was approached through a midline cervical incision. Carefully blunt dissection was used to expose and isolate the vessel from the carotid sheath. […] The vessel temperature was monitored for 60 minutes after application of FeCl3. […] The site of the experiment was covered with aluminum foil in order to protect the FeCl3 from degradation by light.
# All the samples were kept on ice and centrifuged as soon as possible at 2000 Rpm for 10 min., 4° C. The plasma was analyzed in duplicate for activated partial thromboplastin time on a haemostasis analyzer (STAGO ST4™).
# From a group of four animals, two arteries were stored at -80° C. for further analysis. The others were observed under a light microscope at 40× (Leica™) for quantification of the occlusion (complete, partial, no occlusion).
# In some studies, the animal was receiving the compound by i.v. infusion instead of a bolus. In this case, the jugulars and femoral veins were cannulated with Sylastic tubing (I.D. 0.025IN). This left jugular was used for blood sampling and the right one for the infusion line. The compound was infused 30 minutes before injury and then for an other 30 minutes post-injury. Blood samples were taken at time 0, 30 and 60 minutes for APTT test and thrombin test (1 ml of blood/90 ul of citrated buffer).
molecule,measurement,setting,value
B1,ED15 (dose which causes a prolongation of the time until occlusion of the shunt by 15 min),[1],1.42 mg/kg
same,Bolus Dose needed to cause 2-4 fold increase in APTT,[2],0.15 mg/kg
same,Infusion Dose needed to cause 2-4 fold increase in APTT,[2],15
same,Dose to double patency time,[3],1 mg/kg
